Measurements from patent US20250108100A1, “C-TERMINAL FRAGMENT OF APOLIPOPROTEIN E AND APPLICATION THEREOF IN INHIBITING y-SECRETASE ACTIVITY” (SYNPHATEC (SHANGHAI) BIOPHARMACEUTICAL TECHNOLOGY CO., LTD., priority 2022, published 2025).
“Also recorded” adds a separate entry of the source.

B1: ApoE2 MD10: SEQ ID NO: 61; ApoE2 with amino acid residues at positions 244 to 254 deleted (protein)
chain: KVEQAVETEPEPELRQQTEWQSGQRWELALGRFWDYLRWVQTLSEQVQEELLSSQVTQELRALMDETMKELKAYKSELEEQLTPVAEETRARLSKELQAAQARLGADMEDVCGRLVQYRGEVQAMLGQSTEELRVRLASHLRKLRKRLLRDADDLQKCLAVYQAGAREGAERGLSAIRERLGPLVEQGRVRAATVGSLAGQPLQERAQAWGERLRARMEEMGSRTRDRLDEVKEQVAEVRAKLEAFQARLKSWFEPLVEDMQRQWAGLVEKVQAAVGTSAAPVPSDNH
B2: ApoE2-M3F: SEQ ID NO: 60; ApoE2 with 3×FLAG added between residues 215 and 216 (protein)
chain: KVEQAVETEPEPELRQQTEWQSGQRWELALGRFWDYLRWVQTLSEQVQEELLSSQVTQELRALMDETMKELKAYKSELEEQLTPVAEETRARLSKELQAAQARLGADMEDVCGRLVQYRGEVQAMLGQSTEELRVRLASHLRKLRKRLLRDADDLQKCLAVYQAGAREGAERGLSAIRERLGPLVEQGRVRAATVGSLAGQPLQERAQAWGERLRGSGGSDYKDHDGDYKDHDIDYKDDDDKSGSGSARMEEMGSRTRDRLDEVKEQVAEVRAKLEEQAQQIRLQAEAFQARLKSWFEPLVEDMQRQWAGLVEKVQAAVGTSAAPVPSDNH
modifications: 3xFLAG inserted between residues 215 and 216
B3: CT E20: SEQ ID NO: 55; multiple site mutant of ApoE CT (protein)
chain: ARMEEMGSRTRDRLDEVKEAVAEVRAKLEEQAQQIRLQAAAFQARLKSWFEPLVEDMQRAWAGLVEKVQAAVGTSAAPVASDNH
B4: CT E10: SEQ ID NO: 54; multiple site mutant of ApoE CT (protein)
chain: ARMEEMGSRARDRLDEVKEAVAEVRAKLEAQAQQIRLQAAAFQARLKSWAEPLVEDMQRAWAGLVEKVQAAVGTSAAPVASDNH
B5: CT E5: SEQ ID NO: 53; multiple site mutant of ApoE CT (protein)
chain: ARMEEMGSRARDRLAEVKEAVAEVAAKLEAQAQQARLQAAAFQAALKSWAEPLVADMQRAWAGLAEKVQAAVGTAAAPVASDNH
B6: CT LM5: SEQ ID NO: 59; ApoE CT mutant E23A + V24A + R25A + K27A (protein)
chain: ARMEEMGSRTRDRLDEVKEQVAAAAAALEEQAQQIRLQAEAFQARLKSWFEPLVEDMQRQWAGLVEKVQAAVGTSAAPVPSDNH
B7: CT F5: SEQ ID NO: 56; multiple site mutant of ApoE CT (protein)
chain: AAAAAMGSRTRDRLDEVKEQVAEVRAKLEEQAQQIRLQAEAFQARLKSWFEPLVEDMQRQWAGLVEKVQAAVGTSAAPVPSDNH
B8: CT A36/74: SEQ ID NO: 52; ApoE CT mutant R36A + T74A (R251A + T289A of SEQ ID NO: 12) (protein)
chain: ARMEEMGSRTRDRLDEVKEQVAEVRAKLEEQAQQIALQAEAFQARLKSWFEPLVEDMQRQWAGLVEKVQAAVGASAAPVPSDNH
B9: CT A40: SEQ ID NO: 47; ApoE CT mutant E40A (E255A of SEQ ID NO: 12); table prints CT A20 (protein)
chain: ARMEEMGSRTRDRLDEVKEQVAEVRAKLEEQAQQIRLQAAAFQARLKSWFEPLVEDMQRQWAGLVEKVQAAVGTSAAPVPSDNH
B10: CT R10: SEQ ID NO: 57; ApoE CT mutant S75A + P78A + V79A + P80A + S81A + D82A + N83A + H84A (protein)
chain: ARMEEMGSRTRDRLDEVKEQVAEVRAKLEEQAQQIRLQAEAFQARLKSWFEPLVEDMQRQWAGLVEKVQAAVGTAAAAAAAAAA
B11: monkey CT: SEQ ID NO: 62; non-human primate-derived ApoE CT, R36S+T74A+A76T versus human ApoE CT (protein)
chain: ARMEEMGSRTRDRLDEVKEQVAEVRAKLEEQAQQISLQAEAFQARLKSWFEPLVEDMQRQWAGLVEKVQAAVGASTAPVPSDNH
B12: CT A72: SEQ ID NO: 50; ApoE CT mutant V72A (V287A of SEQ ID NO: 12) (protein)
chain: ARMEEMGSRTRDRLDEVKEQVAEVRAKLEEQAQQIRLQAEAFQARLKSWFEPLVEDMQRQWAGLVEKVQAAAGTSAAPVPSDNH
B13: CT A60: SEQ ID NO: 48; ApoE CT mutant Q60A (Q275A of SEQ ID NO: 12) (protein)
chain: ARMEEMGSRTRDRLDEVKEQVAEVRAKLEEQAQQIRLQAEAFQARLKSWFEPLVEDMQRAWAGLVEKVQAAVGTSAAPVPSDNH
B14: CT LF5: SEQ ID NO: 58; ApoE CT mutant R11A + D12A + R13A + L14A + D15A (protein)
chain: ARMEEMGSRTAAAAAEVKEQVAEVRAKLEEQAQQIRLQAEAFQARLKSWFEPLVEDMQRQWAGLVEKVQAAVGTSAAPVPSDNH
B15: CT A65: SEQ ID NO: 49; ApoE CT mutant V65A (V280A of SEQ ID NO: 12) (protein)
chain: ARMEEMGSRTRDRLDEVKEQVAEVRAKLEEQAQQIRLQAEAFQARLKSWFEPLVEDMQRQWAGLAEKVQAAVGTSAAPVPSDNH
B16: CT A80: SEQ ID NO: 51; ApoE CT mutant P80A (P295A of SEQ ID NO: 12) (protein)
chain: ARMEEMGSRTRDRLDEVKEQVAEVRAKLEEQAQQIRLQAEAFQARLKSWFEPLVEDMQRQWAGLVEKVQAAVGTSAAPVASDNH
B17: CT A20: SEQ ID NO: 46; ApoE CT mutant Q20A (Q235A of SEQ ID NO: 12) (protein)
chain: ARMEEMGSRTRDRLDEVKEAVAEVRAKLEEQAQQIRLQAEAFQARLKSWFEPLVEDMQRQWAGLVEKVQAAVGTSAAPVPSDNH

System: human APP co-expressed in HEK 293T cells
Experiment: α-CTF produced by APP co-expressed in HEK 293T cells (Western blot)
Format: cell-based
Conditions: for α-CTF produced by co-expressed APP: Western blot, vs GFP control; for degree of α-CTF increase compared to ApoE CT: ApoE CT positive control
Method: • a) A plasmid expressing the target protein in mammalian cells was constructed, and the protein expression promoter is CAG. • b) The target protein was expressed in HEK 293T cell line. Cells were subcultured one day before transfection, and transfection was performed when the degree of cell adhesion reached 70%-80%. The transfection reagent was lipofectamine2000 (ThermoFisher). • c) 4-6 hours post transfection, the medium were replaced with fresh cell culture medium. • d) 36-48 hours post transfection, the cells were lysed (10% 1M tris-HCl (pH=6.8), 4% SDS, 20% glycerol, 0.01% bromophenol blue), and the protein samples were collected and used for Western blot or stored in a −80° C. freezer. • e) Polyacrylamide gel electrophoresis. Before protein loading, the protein was boiled at 98° C. for 10 min, and then centrifuged at 12000 rpm for 10 min. Electrophoresis: 80V for the upper stacking gel; 120V for the lower separating gel. • f) Protein transfer. The filter paper was soaked in the electrophoresis solution before use, and the PVDF membrane was put in methanol for 10s to activate, and the gel after electrophoresis was taken out from the electrophoresis tank, put in the order of filter paper—PVD membrane—gel-filter paper from bottom to top, and they were put into the transfer instrument, with transferring in constant current at 0.1 A for 70 min. • g) Blocking and antibody incubation: the transferred PVDF membrane was placed in 5% BSA/TBST blocking solution, and blocked on a shaker at room temperature for 1 hour. The primary antibody was used to incubate at 4° C. overnight on a shaker (12-16 h); 1×TBST was used to wash three times, once every 10 minutes; the secondary antibody was used to incubate, shaked at room temperature for 1-2 h; 1×TBST was used to wash three times, once every 10 minutes. • h) Imaging by development: development was performed with ECL chemiluminescence hypersensitive chromogenic reagent.
Plasmids were transfected in HEK 293T or N2A cells for 36-48 hours and then lysed in cell lysis buffer [10% 1M tris-HCl (pH=6.8), 4% SDS, 20% glycerol, 0.01% bromophenol blue]. Lysates were shaken at room temperature for 10 min, then boiled for 10 min, and centrifuged at 12,000×g for 10 min. Proteins were run on 8% or 12% Tris-glycine SDS-PAGE and transferred to PVDF membranes (Life Technologies). Samples were incubated overnight at 4° C. with primary antibody diluted in 5% BSA buffer (in 1×TBST). After washing 3 times with 1×TBST, they were incubated with secondary antibody diluted in 5% BSA buffer (in 1×TBST) for 2 hours at room temperature. Finally, after washing 3 times with 1×TBST, the signal was detected by ECL Western blotting substrate (Solarbio, PE0010).
Data were analyzed by GraphPad Prism software (v6) using unpaired, paired, or one-sample t-tests. Aβ40 and Aβ42 levels were normalized to the corresponding GFP controls. α-CTF levels were normalized to FL-APP and corresponding GFP controls. All data are represented as mean±SEM. Statistical significance was defined as p<0.05. One, two, three and four stars (*) in the graph indicate p-values <0.05, <0.01, <0.001 and <0.0001, respectively.

Row | Molecule | α-CTF produced by co-expressed APP | degree of α-CTF increase compared to ApoE CT | α-CTF produced by co-expressed APP (listed as ApoE CT from a non-human primate)
1 | B1 | significantly increases α-CTF; also recorded: also increased α-CTF |  | 
2 | B2 | significantly increases α-CTF; also recorded: increased α-CTF |  | 
3 | B3 | can no longer increase α-CTF; also recorded: failed to increase |  | 
4 | B4 | can no longer increase α-CTF; also recorded: failed to increase |  | 
5 | B5 | can no longer increase α-CTF; also recorded: failed to increase |  | 
6 | B6 | still significantly increase α-CTF; also recorded: can also significantly increase α-CTF |  | 
7 | B7 | can no longer increase α-CTF; also recorded: failed to increase |  | 
8 | B8 | significantly increased α-CTF | even higher | 
9 | B9 | significantly increased α-CTF |  | 
10 | B10 | still significantly increase α-CTF; also recorded: can also significantly increase α-CTF |  | 
11 | B11 | also increase α-CTF | identical to that of human ApoE CT | significantly increased α-CTF
12 | B12 | significantly increased α-CTF | even higher | 
13 | B13 | significantly increased α-CTF |  | 
14 | B14 | still significantly increase α-CTF; also recorded: can also significantly increase α-CTF |  | 
15 | B15 | significantly increased α-CTF |  | 
16 | B16 | significantly increased α-CTF | even higher | 
17 | B17 | significantly increased α-CTF |  | 
